According to patent US20200149021, “SYSTEM AND METHOD FOR GENOME EDITING” (INSTITUTE OF ZOOLOGY, CHINESE ACADEMY OF SCIENCES, published 2020):

Columns and labels:
[1] = target: T1, BsCpf1 (Butyrivibrio sp. NC30); assay: cell_activity; PAM TTTC; T7EI; conditions: tags: HA (2A-eGFP vector)
T1 chain: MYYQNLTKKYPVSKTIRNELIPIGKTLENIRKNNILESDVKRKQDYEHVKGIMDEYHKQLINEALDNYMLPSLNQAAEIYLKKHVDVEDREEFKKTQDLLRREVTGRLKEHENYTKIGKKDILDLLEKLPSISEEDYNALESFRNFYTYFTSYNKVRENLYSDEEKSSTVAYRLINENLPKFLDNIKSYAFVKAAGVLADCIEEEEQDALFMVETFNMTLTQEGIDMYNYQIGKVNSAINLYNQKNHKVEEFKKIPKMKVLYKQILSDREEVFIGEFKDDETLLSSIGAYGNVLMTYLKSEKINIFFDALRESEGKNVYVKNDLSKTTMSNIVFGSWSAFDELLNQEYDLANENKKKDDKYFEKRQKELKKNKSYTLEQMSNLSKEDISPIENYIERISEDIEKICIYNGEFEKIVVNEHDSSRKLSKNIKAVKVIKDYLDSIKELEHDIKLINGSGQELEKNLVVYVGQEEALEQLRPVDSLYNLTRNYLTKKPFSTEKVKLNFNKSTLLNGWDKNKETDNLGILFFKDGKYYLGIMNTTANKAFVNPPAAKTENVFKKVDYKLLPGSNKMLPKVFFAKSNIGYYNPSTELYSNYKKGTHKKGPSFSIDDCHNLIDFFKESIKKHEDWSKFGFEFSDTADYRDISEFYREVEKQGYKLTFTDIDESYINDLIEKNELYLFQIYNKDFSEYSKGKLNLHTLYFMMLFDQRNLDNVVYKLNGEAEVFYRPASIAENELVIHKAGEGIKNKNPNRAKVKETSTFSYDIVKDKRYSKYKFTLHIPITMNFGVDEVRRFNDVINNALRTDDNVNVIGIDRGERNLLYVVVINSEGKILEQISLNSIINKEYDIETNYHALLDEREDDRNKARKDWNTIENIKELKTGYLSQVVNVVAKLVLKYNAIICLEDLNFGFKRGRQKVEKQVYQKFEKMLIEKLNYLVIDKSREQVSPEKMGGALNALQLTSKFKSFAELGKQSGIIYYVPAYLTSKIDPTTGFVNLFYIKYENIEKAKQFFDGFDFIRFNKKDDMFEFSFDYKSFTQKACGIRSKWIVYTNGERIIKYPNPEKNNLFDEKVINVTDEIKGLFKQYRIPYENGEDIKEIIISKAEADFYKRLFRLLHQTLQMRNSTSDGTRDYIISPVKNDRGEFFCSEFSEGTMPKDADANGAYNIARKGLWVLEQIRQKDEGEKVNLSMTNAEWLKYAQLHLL
Method: (§1) GFP-positive cells were sorted by FACS, lysed with Buffer L+ 1/100V Protease K (Biotool) at 55° C. for 30 min, inactivated at 95° C. for 5 min, and directly used for PCR detection. Appropriate primers were designed near the Cpf1 targeting site, and the amplified product was purified using DNA Clean & Concentrator™-5 kit (ZYMO Research). 200 ng of purified PCR product was added into 1 uL of NEBuffer2 (NEB) and diluted to 10 uL with ddH₂O. Then, heterodimers were formed by re-annealing according to the previously reported method (Li, W., et al., Simultaneous generation and germline transmission of multiple gene mutations in rat using CRISPR-Cas systems. Nat Biotechnol, 2013. 31(8): p. 684-6). The reannealed product was added with 0.3 uL of T7EI endnucelease and 1/10 V NEBuffer2 (NEB), and digested at 37° C. for 1 h 30 min. Genotype analysis was performed by 3% TAE-Gel electrophoresis. Indels were calculated according to the method reported in the previous article (Cong, L., et al., Multiplex genome engineering using CRISPR/Cas systems. Science, 2013. 339(6121): p. 819-23).
(§2) The cells were transfected with Cpf1, crRNA31, and crRNA2 plasmids, and it was confirmed by PCR and T7EI analysis that crRNA31 can increase the editing efficiency of five Cpf1s of ArCpf1, BsCpf1, HkCpf1, PrCpf1, and PxCpf1 at the site MeCP2-4 by two folds (FIG. 13B).

[2] = target: T2, ArCpf1 (Agathobacter rectalis); assay: cell_activity; PAM TTTC; T7EI; conditions: tags: NLS, HA (2A-eGFP vector)
T2 chain: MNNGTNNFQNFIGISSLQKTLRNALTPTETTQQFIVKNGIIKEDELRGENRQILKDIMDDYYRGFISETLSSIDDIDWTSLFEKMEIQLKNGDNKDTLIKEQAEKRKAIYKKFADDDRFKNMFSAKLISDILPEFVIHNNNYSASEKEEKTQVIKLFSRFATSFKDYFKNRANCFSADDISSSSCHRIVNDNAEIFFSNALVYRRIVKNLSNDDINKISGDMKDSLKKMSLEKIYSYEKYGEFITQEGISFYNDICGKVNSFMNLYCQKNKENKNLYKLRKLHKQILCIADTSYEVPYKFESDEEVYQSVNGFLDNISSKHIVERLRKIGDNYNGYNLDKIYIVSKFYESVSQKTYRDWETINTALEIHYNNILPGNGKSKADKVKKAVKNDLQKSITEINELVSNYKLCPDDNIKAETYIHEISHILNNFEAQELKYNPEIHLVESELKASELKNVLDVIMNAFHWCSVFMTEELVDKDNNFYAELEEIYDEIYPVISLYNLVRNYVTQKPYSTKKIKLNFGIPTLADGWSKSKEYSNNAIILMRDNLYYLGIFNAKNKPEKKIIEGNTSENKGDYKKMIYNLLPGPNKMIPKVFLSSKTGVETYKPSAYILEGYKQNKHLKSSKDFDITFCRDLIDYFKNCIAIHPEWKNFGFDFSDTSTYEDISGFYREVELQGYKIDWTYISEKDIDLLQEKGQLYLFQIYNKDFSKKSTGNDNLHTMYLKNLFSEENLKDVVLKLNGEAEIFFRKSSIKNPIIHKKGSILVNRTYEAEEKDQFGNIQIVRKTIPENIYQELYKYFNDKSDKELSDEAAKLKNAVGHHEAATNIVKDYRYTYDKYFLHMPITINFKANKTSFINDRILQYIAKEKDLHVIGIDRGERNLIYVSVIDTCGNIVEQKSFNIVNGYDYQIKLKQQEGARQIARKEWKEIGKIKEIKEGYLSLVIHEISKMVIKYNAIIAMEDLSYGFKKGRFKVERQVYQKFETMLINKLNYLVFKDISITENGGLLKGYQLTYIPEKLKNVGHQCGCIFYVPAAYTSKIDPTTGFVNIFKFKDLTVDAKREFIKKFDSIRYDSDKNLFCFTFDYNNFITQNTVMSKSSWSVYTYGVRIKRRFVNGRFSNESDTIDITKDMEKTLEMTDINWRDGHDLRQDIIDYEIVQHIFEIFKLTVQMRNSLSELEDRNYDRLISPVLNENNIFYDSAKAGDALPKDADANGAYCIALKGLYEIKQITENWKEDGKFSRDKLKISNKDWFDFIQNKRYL
Method: as §1, §2

B1: crRNA31 MeCP2 site 4 ; Mouse MeCP2 site 4 (ssRNA ; dsDNA)
RNA: AUUUCUACUAUGGUAGAUGUGUCCAACCUUCAGGCAAGGUG
DNA 1: TTTCGTGTCCAACCTTCAGGCAAGGTG
DNA 2: CACCTTGCCTGAAGGTTGGACACGAAA
- editing efficiency [1]: ~2 fold vs crRNA2
- editing efficiency [2]: ~2 fold vs crRNA2
